{"source": "patent US20180346592A1", "key": {"[1]": {"target": "GPC3 on the surface of hepatic cancer cell lines (SK-Hep1-GPC3 transfectant, HepG2, Huh7, Hep3B, SNU398) (human) (UniProt P51654)", "assay": "FACS, HepG2 cells; lower right panel"}, "[2]": {"target": "GPC3 on the surface of hepatic cancer cell lines (SK-Hep1-GPC3 transfectant, HepG2, Huh7, Hep3B, SNU398) (human) (UniProt P51654)", "assay": "FACS, SK-Hep1-GPC3 cells; lower right panel"}, "[3]": {"target": "GPC3 on the surface of hepatic cancer cell lines (SK-Hep1-GPC3 transfectant, HepG2, Huh7, Hep3B, SNU398) (human) (UniProt P51654)", "assay": "FACS, SK-Hep1-GPC3 #9 cells; lower left panel"}, "[4]": {"target": "GPC3 on the surface of hepatic cancer cell lines (SK-Hep1-GPC3 transfectant, HepG2, Huh7, Hep3B, SNU398) (human) (UniProt P51654)", "assay": "FACS, SK-Hep1-GPC3 #9 cells; upper right panel"}}, "data": [{"substance": "hIgG (antibody)", "values": [{"measurement": "Mean, FL2-H", "setting": "[1]", "result": 2.87}, {"measurement": "Mean, FL2-H", "setting": "[2]", "result": 3.49}, {"measurement": "Mean, FL2-H", "setting": "[3]", "result": 5.79}, {"measurement": "Mean, FL2-H", "setting": "[4]", "result": 4.76}]}]}
